koff, kon and Kd data for one molecule are collected here from patent publication US20230340152A1 (published 2023).

Positions count from the first letter of the chain named. In names and notes the source's numbering stands.

Common to all, as to experiment: SPR (ProteOn), CD73 variant immobilized on HTG chip
Test [1] has as its target T1, Human CD73 V144K+K180A, His-tagged (human, UniProt P21589 27-549).
T1 chain: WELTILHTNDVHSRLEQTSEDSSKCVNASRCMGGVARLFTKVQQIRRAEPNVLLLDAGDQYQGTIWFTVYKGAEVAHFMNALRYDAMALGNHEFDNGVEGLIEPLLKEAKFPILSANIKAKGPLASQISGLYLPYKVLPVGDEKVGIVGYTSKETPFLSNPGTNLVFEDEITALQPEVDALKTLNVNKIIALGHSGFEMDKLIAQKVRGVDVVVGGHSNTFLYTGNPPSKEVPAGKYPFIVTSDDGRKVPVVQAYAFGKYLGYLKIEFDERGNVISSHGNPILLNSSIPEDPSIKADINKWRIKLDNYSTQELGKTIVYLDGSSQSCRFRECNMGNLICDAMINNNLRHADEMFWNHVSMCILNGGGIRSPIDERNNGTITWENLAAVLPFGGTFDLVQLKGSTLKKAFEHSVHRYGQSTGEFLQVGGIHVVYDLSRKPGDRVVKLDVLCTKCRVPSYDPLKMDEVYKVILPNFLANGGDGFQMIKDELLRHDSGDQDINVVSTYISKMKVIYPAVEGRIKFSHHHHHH
The procedure: (§1) Binding of MEDI9447 to wild-type and mutant CD73 proteins was measured by surface plasmon resonance (SPR) using a ProteOn instrument (BioRad). CD73 crude cell supernatant protein samples were diluted to 3 µg/ml in PBS, 0.005% Tween-20, pH 7.4 (BioRad) and immobilized to ~400 RU on a HTG tris-NTA sensor chip (BioRad) pre-activated with 10 mM NiSO₄, 10 mM MES, pH 6.0 (BioRad). An equivalently diluted crude cell supernatant sample from non-transfected cells was included as a reference channel control. Sensorgrams were recorded by flowing two-fold dilutions of MEDI9447 prepared in PBS, 0.005% Tween-20, pH 7.4, ranging from 5 nM to 0.31 nM. […] Antibody binding was measured at a flow rate of 100 µL/min with a 3 min association phase and 20 min dissociation phase. The sensor chip surface was regenerated between each run by an 800 s injection of 300 mM EDTA, pH 8.5 (BioRad) at a flow rate of 30 µL/min. Binding kinetics were analyzed using the ProteOn data analysis software. Double referencing was performed and, unless noted otherwise, a 1:1 Langmuir binding model was utilized to fit the data. Some CD73 variants containing mutations within the amino acid region 171-188 fit poorly to a 1:1 model (i.e., Chi² values >10% of Rmax). Where noted, these variants were fit with a heterogenous antigen (2:1) model. […] Due to the assay format (antigen immobilized) and the dimeric state of CD73, KD values may be exaggerated due to avidity effects. However, it is not anticipated that this impacts ranking of MEDI9447 binding to the different CD73 variants.

The next test concerns the target T2, KO_Linker CD73 chimera (human; chicken, UniProt P21589 27-553).
T2 construct: also called KO_292-310; linker region-swapped CD73
T2 chain: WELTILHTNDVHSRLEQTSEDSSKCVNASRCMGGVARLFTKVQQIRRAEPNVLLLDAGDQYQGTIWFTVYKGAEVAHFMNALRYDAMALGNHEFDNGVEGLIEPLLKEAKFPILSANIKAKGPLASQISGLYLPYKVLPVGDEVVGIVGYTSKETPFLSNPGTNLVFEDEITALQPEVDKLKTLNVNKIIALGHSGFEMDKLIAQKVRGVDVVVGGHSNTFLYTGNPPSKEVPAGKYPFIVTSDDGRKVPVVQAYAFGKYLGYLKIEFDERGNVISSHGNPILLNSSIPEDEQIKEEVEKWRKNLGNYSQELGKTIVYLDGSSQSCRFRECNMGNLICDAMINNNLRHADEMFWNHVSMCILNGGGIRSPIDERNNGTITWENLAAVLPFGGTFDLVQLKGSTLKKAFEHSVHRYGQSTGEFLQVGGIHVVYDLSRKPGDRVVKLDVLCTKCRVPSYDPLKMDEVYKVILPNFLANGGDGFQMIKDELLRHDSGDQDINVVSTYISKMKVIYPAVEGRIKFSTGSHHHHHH
The procedure:
as §1

In test [2] the target is T3, Human CD73 V144K, His-tagged (human, UniProt P21589 27-549).
T3 sequence: T1 chain with A180K
The protocol:
as §1

B1: MEDI9447 (antibody, human IgG1, lambda, V domains shown)
VH: EVQLLESGGGLVQPGGSLRLSCAASGFTFSSYAYSWVRQAPGKGLEWVSAISGSGGRTYYADSVKGRFTISRDNSKNTLYLQMNSLRAEDTAVYYCARLGYGRVDEWGRGTLVTVSS
VL: QSVLTQPPSASGTPGQRVTISCSGSLSNIGRNPVNWYQQLPGTAPKLLIYLDNLRLSGVPDRFSGSKSGTSASLAISGLQSEDEADYYCATWDDSHPGWTFGGGTKLTVLG
notes: Human IgG1-TM (L234F, L235E, P331S), lambda light chain; also called clone 10.3 antibody; 73combo3
A word on the koff: it is the first-order rate constant of dissociation. A higher koff goes with fast dissociation. A word on the kon: it is a measure of how fast the partners come together. Higher therefore signals faster complex formation. Usually Kd stands for the concentration at which binding is half-saturated. The low end stands for tighter binding, the high end for weaker binding. In test [1], B1 had a koff of 0.00425 s⁻¹ and a kon of 1.58e+06 M⁻¹ s⁻¹. In the test with KO_Linker CD73 chimera, this molecule registered a Kd of 4.14 pM, a koff of 2.31e-05 s⁻¹ and a kon of 5.7e+06 M⁻¹ s⁻¹. In test [2], this molecule came in with a dissociation rate constant (koff) of 9.18e-05 s⁻¹ and a kon of 1.13e+06 M⁻¹ s⁻¹.
